From patent USRE48558 (Genentech, dated 2021)

T1: extracellular domain of human CD79b (human, UniProt P40259 29-159)
T1 construct: also called huCD79becd; huCD79b-ecd
T1 sequence: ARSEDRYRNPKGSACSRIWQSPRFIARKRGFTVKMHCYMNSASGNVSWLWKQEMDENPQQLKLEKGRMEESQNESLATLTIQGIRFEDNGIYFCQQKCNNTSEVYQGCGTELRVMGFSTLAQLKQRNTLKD

T2: human CD79b on the cell surface (human, UniProt P40259 29-229)
T2 construct: In the Scatchard analysis the BJAB line also stably expressed cynomolgus CD79b; also called PRO36249; endogenous human CD79b on DoHH-2, BJAB and BJAB-luciferase cells
T2 sequence: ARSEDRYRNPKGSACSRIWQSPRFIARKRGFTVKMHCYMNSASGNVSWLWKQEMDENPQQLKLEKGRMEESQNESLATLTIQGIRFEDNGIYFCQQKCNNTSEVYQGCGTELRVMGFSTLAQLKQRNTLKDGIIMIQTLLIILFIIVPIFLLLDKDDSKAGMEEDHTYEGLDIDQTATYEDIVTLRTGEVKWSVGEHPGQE

B1: huMA79b graft variant SEQ ID NO: 98 (Fab, name in Kabat numbering, V domains shown)
VH: EVQLVESGGGLVQPGGSLRLSCAASGYTFSSYWIEWVRQAPGKGLEWVGEILPGGGDTNYNEIFKGRFTISADTSKNTAYLQMNSLRAEDTAVYYCTRRVPVYFSYWGQGTLVTVSS
VL: DIQMTQSPSSLSASVGDRVTITCKASQSVDYDGDSFLNWYQQKPGKAPKLLIYAASNLESGVPSRFSGSGSGTDFTLTISSLQPEDFATYYCQQSNEDPLTFGQGTKVEIKR
notes: Fab on phage; rest as huMA79b graft
B2: huMA79b graft variant SEQ ID NO: 105 (Fab, name in Kabat numbering, V domains shown)
VH: EVQLVESGGGLVQPGGSLRLSCAASGYTFSSYWIEWVRQAPGKGLEWVGEILPGGGDTNYNEIFKGRFTISADTSKNTAYLQMNSLRAEDTAVYYCTRRRPVCLDYWGQGTLVTVSS
VL: DIQMTQSPSSLSASVGDRVTITCKASQSVDYDGDSFLNWYQQKPGKAPKLLIYAASNLESGVPSRFSGSGSGTDFTLTISSLQPEDFATYYCQQSNEDPLTFGQGTKVEIKR
notes: as for B1
B3: huMA79b graft variant SEQ ID NO: 102 (Fab, name in Kabat numbering, V domains shown)
VH: EVQLVESGGGLVQPGGSLRLSCAASGYTFSSYWIEWVRQAPGKGLEWVGEILPGGGDTNYNEIFKGRFTISADTSKNTAYLQMNSLRAEDTAVYYCTRRVPVFLDYWGQGTLVTVSS
VL: DIQMTQSPSSLSASVGDRVTITCKASQSVDYDGDSFLNWYQQKPGKAPKLLIYAASNLESGVPSRFSGSGSGTDFTLTISSLQPEDFATYYCQQSNEDPLTFGQGTKVEIKR
notes: as for B1
B4: huMA79b graft variant SEQ ID NO: 101 (Fab, name in Kabat numbering, V domains shown)
VH: EVQLVESGGGLVQPGGSLRLSCAASGYTFSSYWIEWVRQAPGKGLEWVGEILPGGGDTNYNEIFKGRFTISADTSKNTAYLQMNSLRAEDTAVYYCTRRVPVRFDYWGQGTLVTVSS
VL: DIQMTQSPSSLSASVGDRVTITCKASQSVDYDGDSFLNWYQQKPGKAPKLLIYAASNLESGVPSRFSGSGSGTDFTLTISSLQPEDFATYYCQQSNEDPLTFGQGTKVEIKR
notes: as for B1
B5: huMA79b graft variant SEQ ID NO: 99 (Fab, name in Kabat numbering, V domains shown)
VH: EVQLVESGGGLVQPGGSLRLSCAASGYTFSSYWIEWVRQAPGKGLEWVGEILPGGGDTNYNEIFKGRFTISADTSKNTAYLQMNSLRAEDTAVYYCTRRVPVVLDYWGQGTLVTVSS
VL: DIQMTQSPSSLSASVGDRVTITCKASQSVDYDGDSFLNWYQQKPGKAPKLLIYAASNLESGVPSRFSGSGSGTDFTLTISSLQPEDFATYYCQQSNEDPLTFGQGTKVEIKR
notes: as for B1
B6: thio huMA79b.v28-HC(A118C)-BMPEO-DM1 (antibody, human IgG1, kappa)
heavy: not shown
light: DIQLTQSPSSLSASVGDRVTITCKASQSVDYEGDSFLNWYQQKPGKAPKLLIYAASNLESGVPSRFSGSGSGTDFTLTISSLQPEDFATYYCQQSNEDPLTFGQGTKVEIKRTVAAPSVFIFPPSDEQLKSGTASVVCLLNNFYPREAKVQWKVDNALQSGNSQESVTEQDSKDSTYSLSSTLTLSKADYEKHKVYACEVTHQGLSSPVTKSFNRGEC
modifications: BMPEO-DM1 on the engineered Cys at EU position 118 (sequential 118; Kabat 114)
notes: Cysteine engineered antibody drug conjugate
B7: thio huMA79b.v28-HC(A118C)-MC-MMAF (antibody, human IgG1, kappa)
heavy: not shown
light: DIQLTQSPSSLSASVGDRVTITCKASQSVDYEGDSFLNWYQQKPGKAPKLLIYAASNLESGVPSRFSGSGSGTDFTLTISSLQPEDFATYYCQQSNEDPLTFGQGTKVEIKRTVAAPSVFIFPPSDEQLKSGTASVVCLLNNFYPREAKVQWKVDNALQSGNSQESVTEQDSKDSTYSLSSTLTLSKADYEKHKVYACEVTHQGLSSPVTKSFNRGEC
modifications: MC-MMAF on the engineered Cys at EU position 118 (sequential 118; Kabat 114)
notes: as for B6
B8: thio huMA79b.v28-HC(A118C)-MCvcPAB-MMAE (antibody, human IgG1, kappa)
heavy: not shown
light: DIQLTQSPSSLSASVGDRVTITCKASQSVDYEGDSFLNWYQQKPGKAPKLLIYAASNLESGVPSRFSGSGSGTDFTLTISSLQPEDFATYYCQQSNEDPLTFGQGTKVEIKRTVAAPSVFIFPPSDEQLKSGTASVVCLLNNFYPREAKVQWKVDNALQSGNSQESVTEQDSKDSTYSLSSTLTLSKADYEKHKVYACEVTHQGLSSPVTKSFNRGEC
modifications: MC-val-cit-PAB-MMAE on the engineered Cys at EU position 118 (sequential 118; Kabat 114)
notes: Cysteine engineered antibody drug conjugate; also called thio huMA79b.v28-HC(A118C)-MC-val-cit-PAB-MMAE
B9: MA79b-grafted humanized antibody variant 18 (antibody, human IgG1, kappa)
light: DIQLTQSPSSLSASVGDRVTITCKASQSVDYDGDSFLNWYQQKPGKAPKLLIYAASNLESGVPSRFSGSGSGTDFTLTISSLQPEDFATYYCQQSNEDPLTFGQGTKVEIKRTVAAPSVFIFPPSDEQLKSGTASVVCLLNNFYPREAKVQWKVDNALQSGNSQESVTEQDSKDSTYSLSSTLTLSKADYEKHKVYACEVTHQGLSSPVTKSFNRGEC
heavy: not shown
notes: IgG; also called huMA79b.v18; MA79b.v18
B10: MA79b-grafted humanized antibody variant 17 (antibody, human IgG1, kappa, V domains shown)
VH: EVQLVESGGGLVQPGGSLRLSCAASGYTFSSYWIEWVRQAPGKGLEWIGEILPGGGDTNYNEIFKGRATFSADTSKNTAYLQMNSLRAEDTAVYYCTRRVPVYFDYWGQGTLVTVSS
VL: DIQLTQSPSSLSASVGDRVTITCKASQSVDYDGDSFLNWYQQKPGKAPKLLIYAASNLESGVPSRFSGSGSGTDFTLTISSLQPEDFATYYCQQSNEDPLTFGQGTKVEIKR
notes: IgG; also called huMA79b.v17

These binders were tested against T1, extracellular domain of human CD79b (assay: phage selection, Fab on phage, plate-bound huCD79becd).

| Binder | binding result |
| --- | --- |
| B1 | binds |
| B2 | binds |
| B3 | binds |
| B4 | binds |
| B5 | binds |

Each binder was assayed against T2, human CD79b on the cell surface (assay: FACS on BJAB-luciferase cells, PE anti-human detection).

| Binder | binding result |
| --- | --- |
| B6 | binds |
| B7 | binds |
| B8 | binds |

What follows are binders tested against T1, extracellular domain of human CD79b (assay: SPR (Biacore), IgG, immobilized huCD79becd).

| Binder | fold improvement in dimeric binding compared to variant 17 | binding result |
| --- | --- | --- |
| B9 | 2 fold | – |
| B10 | – | binds |
